{"source": "paper PMC2386288", "about": "“Kinetics and Ligand-Binding Preferences of Mycobacterium tuberculosis Thymidylate Synthases, ThyA and ThyX” (PLoS ONE, 2008)", "biological_target": "the molecule itself", "test": "SEC"}
{"protein": "Histidine-tagged M. tuberculosis ThyA (thymidylate synthase) (enzyme, also called conventional thymidylate synthase) MSIVTPYEDLLRFVLETGTPKSDRTGTGTRSLFGQQMRYDLSAGFPLLTTKKVHFKSVAYELLWFLRGDSNIGWLHEHGVTIWDEWASDTGELGPIYGVQWRSWPAPSGEHIDQISAALDLLRTDPDSRRIIVSAWNVGEIERMALPPCHAFFQFYVADGRLSCQLYQRSADLFLGVPFNIASYALLTHMMAAQAGLSVGEFIWTGGDCHIYDNHVEQVRLQLSREPRPYPKLLLADRDSIFEYTYEDIVVKNYDPHPAIKAPVAV", "values": [{"measurement": "stoichiometry N", "value": 2}]}
